Laboratory results from publication PMC4749569, “Atomic structure of the 26S proteasome lid reveals the mechanism of deubiquitinase inhibition” (eLife, 2016).
Changes are numbered by the printed parent chain. Names and notes keep the numbering of the source. Blank lines part the entries; values can stand above or below the binder they belong to.

How the values were obtained:
[1] = target: T1, Rpn9 (S. cerevisiae (yeast)) (UniProt Q04062)
T1 sequence: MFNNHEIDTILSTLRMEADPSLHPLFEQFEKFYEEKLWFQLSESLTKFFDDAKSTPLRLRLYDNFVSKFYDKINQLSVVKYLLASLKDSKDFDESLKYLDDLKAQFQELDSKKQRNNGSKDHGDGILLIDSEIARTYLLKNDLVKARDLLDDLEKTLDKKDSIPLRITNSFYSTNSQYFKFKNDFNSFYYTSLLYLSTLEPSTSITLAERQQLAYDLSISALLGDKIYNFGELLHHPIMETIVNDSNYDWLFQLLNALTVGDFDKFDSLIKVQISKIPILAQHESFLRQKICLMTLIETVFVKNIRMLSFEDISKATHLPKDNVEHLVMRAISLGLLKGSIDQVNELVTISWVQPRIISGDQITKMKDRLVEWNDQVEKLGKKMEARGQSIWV

[2] = target: Rpn11 (S. cerevisiae (yeast)) (UniProt P43588)
[3] = target: Rpn11 (S. cerevisiae (yeast)) (UniProt P43588); remark: listed apart in the source
Rpn11 = Rpn11 (S. cerevisiae (yeast), UniProt P43588 1-306); test: cell-based or functional assay
[4] = target: Rpn11 (S. cerevisiae (yeast)) (UniProt P43588); remark: listed apart in the source

Chain of Rpn11 (S. cerevisiae (yeast)) (P43588 whole entry): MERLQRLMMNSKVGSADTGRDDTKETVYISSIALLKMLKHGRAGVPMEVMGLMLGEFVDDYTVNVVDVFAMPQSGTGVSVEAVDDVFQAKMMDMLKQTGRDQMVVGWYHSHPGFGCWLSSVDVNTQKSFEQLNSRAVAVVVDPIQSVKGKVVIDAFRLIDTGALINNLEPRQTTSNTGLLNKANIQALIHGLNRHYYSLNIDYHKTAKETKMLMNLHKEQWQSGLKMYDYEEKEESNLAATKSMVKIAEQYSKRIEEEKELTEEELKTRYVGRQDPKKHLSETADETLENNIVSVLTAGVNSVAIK
Chain of Rpn11 (P43588 whole entry): as above

B5: Rpn5 (Y273A) (natural protein)
chain: MSRDAPIKADKDYSQILKEEFPKIDSLAQNDCNSALDQLLVLEKKTRQASDLASSKEVLAKIVDLLASRNKWDDLNEQLTLLSKKHGQLKLSIQYMIQKVMEYLKSSKSLDLNTRISVIETIRVVTENKIFVEVERARVTKDLVEIKKEEGKIDEAADILCELQVETYGSMEMSEKIQFILEQMELSILKGDYSQATVLSRKILKKTFKNPKYESLKLEYYNLLVKISLHKREYLEVAQYLQEIYQTDAIKSDEAKWKPVLSHIVYFLVLSPAGNLQNDLIHKIQNDNNLKKLESQESLVKLFTTNELMRWPIVQKTYEPVLNEDDLAFGGEANKHHWEDLQKRVIEHNLRVISEYYSRITLLRLNELLDLTESQTETYISDLVNQGIIYAKVNRPAKIVNFEKPKNSSQLLNEWSHNVDELLEHIETIGHLITKEEIMHGLQAK
- Ub-AMC cleavage rate of Rpn11 in the isolated lid with this variant, relative to the isolated Rpn11/Rpn8 dimer (% of the isolated Rpn11/Rpn8 dimer) [2]: 61

B6: Rpn5 (H282A,K283A) (natural protein)
chain: B5 chain with A273Y, H282A, K283A
- Ub-AMC cleavage rate of Rpn11 in the isolated lid with this variant, relative to the free MPN heterodimer (% of the free MPN heterodimer) [3]: 51

B7: Rpn5 (natural protein, S. cerevisiae (yeast))
chain: B5 chain with A273Y
- Ub-AMC cleavage rate of Rpn11 in the isolated wild-type lid against the free Rpn11/Rpn8 dimer (500 nM enzyme, 2.5 μM Ubiquitin-AMC, 30°C, lid buffer) (Rpn11): 5 fold lower

B9: Rpn5 (N275A) (natural protein)
chain: B5 chain with A273Y, N275A
- Ub-AMC cleavage rate of Rpn11 in the isolated lid with this variant, relative to the isolated MPN heterodimer (% of the isolated MPN heterodimer) [4]: 51

B10: Rpn5 (H282A) (natural protein)
chain: B5 chain with A273Y, H282A
- Ub-AMC cleavage rate of Rpn11 in the isolated lid with this variant, relative to the free MPN heterodimer (% of the free MPN heterodimer) [3]: 31

The next lines start with the values.

- Ub-AMC cleavage rate of Rpn11 in the isolated lid with this variant, relative to the isolated MPN heterodimer (% of the isolated MPN heterodimer) [1]: 60
B1: Rpn8 (K86A,K88A) (natural protein)
chain: MSLQHEKVTIAPLVLLSALDHYERTQTKENKRCVGVILGDANSSTIRVTNSFALPFEEDEKNSDVWFLDHNYIENMNEMCKKINAAEALIGWYHSGPKLRASDLKINELFKKYTQNNPLLLIVDVKQQGVGLPTDAYVAIEQVKDDGTSTEKTFLHLPCTIEAEEAEEIGVEHLLRDVRDQAAGGLSIRLTNQLKSLKGLQSKLKDVVEYLDKVINKELPINHTILGKLQDVFNLLPNLGTPDDDEIDVENHDRINISNNLQKALTVKTNDELMVIYISNLVRSIIAFDDLIENKIQNKKIQEQRVKDKQSKVSDDSESESGDKEATAPLIQRKNKKN

- Ub-AMC cleavage rate of Rpn11 in the isolated lid with this variant, relative to the free MPN heterodimer (% of the free MPN-heterodimer levels) [1]: 33
B2: Rpn8 (K86A) (natural protein)
chain: B1 chain with A88K

- Ub-AMC cleavage rate of Rpn11 in the isolated lid with this variant, relative to the free MPN heterodimer (% of the free MPN-heterodimer levels) [1]: 45
B3: Rpn8 (K88A) (natural protein)
chain: B1 chain with A86K

- Ub-AMC cleavage rate of Rpn11 in the isolated lid with this variant, relative to the isolated MPN heterodimer (% of isolated MPN levels) [1]: 33
B4: Rpn8 (Q115A) (natural protein)
chain: B1 chain with A86K, A88K, Q115A

- Ub-AMC cleavage rate of Rpn11 in the isolated lid with this variant, relative to the free MPN heterodimer (% of the free MPN heterodimer) [3]: 41
B8: Rpn5 K283A (natural protein)
chain: B5 chain with A273Y, K283A
